The text below walks through data of patent US20240390423A1 (published 2024).

Assay [1] addresses mutated CTNNB1^S37F peptide presented by HLA-A2 on target cells (T2 cells pulsed with the peptide; HUTU80 tumor cells with endogenous CTNNB1^S37F) (human). As to the kind of experiment: cell-based or functional assay.
Assay [2] deals with T1, CTNNB1 wild type (S37) peptide on HLA-A*02:01 (human).
T1 peptide: YLDSGIHSGA
The experiment in a line: activation reporter or marker.

Assay [3] has as its target T2, CTNNB1 S37F peptide on HLA-A*02:01 (human).
T2 peptide: YLDSGIHFGA
As to the kind of experiment: CD69 by flow cytometry on GFP+ JRT (J.RT3-T3.5) cells transduced with pCDH-CTNNB1; T2 cells pulsed with a 10x dilution series of peptide from 1 µg/ml, 16 h; dose-dependent; full-length, on cells.

Assay [4] has as its target T2, CTNNB1 S37F peptide on HLA-A*02:01. The experiment in a line: CD137 by flow cytometry on GFP+ CD8+ PBMC-derived T cells transduced with pCDH-CTNNB1; T2 cells pulsed with a 10x dilution series of peptide from 1 µg/ml, 24 h; dose-dependent; full-length, on cells.

B1: inventive TCR specific for the mutated CTNNB1^S37F peptide in the context of HLA-A2, with murine constant regions, expressed from lentiviral vector pCDH-CTNNB1 … (TCR)
TCR alpha: AQKVTQAQTEISVVEKEDVTLDCVYETRDTTYYLFWYKQPPSGELVFLIRRNSFDEQNEISGRYSWNFQKSTSSFNFTITASQVVDSAVYFCALSERPGYSTLTFGKGTMLLVSPDIQNPEPAVYQLKDPRSQDSTLCLFTDFDSQINVPKTMESGTFITDKTVLDMKAMDSKSNGAIAWSNQTSFTCQDIFKETNATYPSSDVPCDATLTEKSFETDMNLNFQNLSVMGLRILLLKVAGFNLLMTLRLWSS
TCR beta: DAGVIQSPRHEVTEMGQEVTLRCKPISGHDYLFWYRQTMMRGLELLIYFNNNVPIDDSGMPEDRFSAKMPNASFSTLKIQPSEPRDSAVYFCASGTPSTYEQYFGPGTRLTVTEDLRNVTPPKVSLFEPSKAEIANKQKATLVCLARGFFPDHVELSWWVNGKEVHSGVSTDPQAYKESNYSYCLSSRLRVSATFWHNPRNHFRCQVQFHGLSEEDKWPEGSPKPVTQNISAEAWGRADCGITSASYQQGVLSATILYEILLGKATLYAVLVSTLVVMAMVKRKNS
For B1, in assay [1], the percentage of CD8+CD137+ cells in gated GFP+ transduced PBMC T cells after 24 h co-culture with peptide-pulsed T2 cells; lowest peptide concentration giving a twofold increase over no peptide is 1 ng/mL and the percentage of CD69+ cells in gated GFP+ JRT cells after 16 h co-culture with peptide-pulsed T2 cells; lowest peptide concentration giving a twofold increase over no peptide was 0.5 ng/mL.

B2: CTNNB1^S37F peptide specific TCR (the inventive TCR) (TCR, V domains shown)
Valpha: AQKVTQAQTEISVVEKEDVTLDCVYETRDTTYYLFWYKQPPSGELVFLIRRNSFDEQNEISGRYSWNFQKSTSSFNFTITASQVVDSAVYFCALSERPGYSTLTFGKGTMLLVSP
Vbeta: DAGVIQSPRHEVTEMGQEVTLRCKPISGHDYLFWYRQTMMRGLELLIYFNNNVPIDDSGMPEDRFSAKMPNASFSTLKIQPSEPRDSAVYFCASGTPSTYEQYFGPGTRLTVT
Take B2: in assay [2], the binding result is listed as “no recognition”. Further, in assay [3], the “lowest activating peptide concentration (twofold CD69+ over no peptide)” value was around 0.5 ng/mL. For the same molecule, in assay [4], the “lowest activating peptide concentration (twofold CD8+CD137+ over no peptide)” value came out at 1 ng/mL.
